Source: patent US20240384250A1, “FIBROBLAST GROWTH FACTOR 23 MODULATING COMPOUNDS” (THE UAB RESEARCH FOUNDATION, priority 2021, published 2024)
“Also recorded” adds a separate entry of the source.

Tested on: FGF23 and FGFR1c
Assay: sKL detection assay (FGF23 coated, Fc-FGFR1c detection)
Format: binding
Conditions: commercial preparations compared with the sKL protein
Procedure: Commercially available ELISA plates (Maxisorp) are coated with 5 μg/ml of recombinant FGF23 protein (R&D Systems) and unspecific binding sites are blocked with BSA/Tween20. Wells are incubated with sKL in solution (which can be plasma, serum or cell culture supernatants) for one hour, washed and incubated for one hour with 750 ng/ml of recombinant FGFR1α(IIIc)-Fc (R&D Systems), which is a chimeric protein consisting of the FGFR1 ectodomain and the Fc region of a human IgG. FGFR1 only binds to FGF23 in the presence of sKL, and the formation of this trimeric sandwich complex is then measured by detecting the presence of the Fc domain that is coupled to FGFR1. To do so, wells are washed and incubated with 400 ng/ml of anti-human IgG conjugated to horseradish peroxidase (HRP; Promega). Wells are washed and incubated with HRP substrate. After development for about 30 minutes, reactions are analyzed on a standard plate reader via absorptions at […]. Incubations with recombinant sKL dissolved in PBS at defined concentrations serve as standards that are used as reference values to determine sKL concentrations in the studied human samples. […]
HEK293 cells were plated in 10 cm dishes supplemented with 10% FBS (26140079, Gibco) and I× Pen/Strep (15140122, Gibco). Cells were transfected with appropriate klotho or green fluorescent protein cDNA constructs. After 2 days, clones were selected by using 1 μg/ml of puromycin (A1113803, Gibco). Cells were then split and plated in 10 cm dishes in DMEM supplemented with FBS and puromycin. After 48 hours, cells were lysed in 1 ml of RIPA buffer with the addition of a protease inhibitor (11873580001, Roche) for 30 minutes. The mixture was then centrifuged at 20,000 g for 1 hour to remove all cell debris. Activity assay was run as above in the sKL halflife study. Instead of serum, 20 μl of the indicated cell lysate was used and combined with 80 μl of activity assay buffer.

B1: KL1: human klotho domain 1 (KL1) from PeproTech, aa 34-549 (protein)
chain: EPGDGAQTWARFSRPPAPEAAGLFQGTFPDGFLWAVGSAAYQTEGGWQQHGKGASIWDTFTHHPLAPPGDSRNASLPLGAPSPLQPATGDVASDSYNNVFRDTEALRELGVTHYRFSISWARVLPNGSAGVPNREGLRYYRRLLERLRELGVQPVVTLYHWDLPQRLQDAYGGWANRALADHFRDYAELCFRHFGGQVKYWITIDNPYVVAWHGYATGRLAPGIRGSPRLGYLVAHNLLLAHAKVWHLYNTSFRPTQGGQVSIALSSHWINPRRMTDHSIKECQKSLDFVLGWFAKPVFIDGDYPESMKNNLSSILPDFTESEKKFIKGTADFFALCFGPTLSFQLLDPHMKFRQLESPNLRQLLSWIDLEFNHPQIFIVENGWFVSGTTKRDDAKYMYYLKKFIMETLKAIKLDGVDVIGYTAWSLMDGFEWHRGYSIRRGLFYVDFLSQDKMLLPKSSALFYQKLIEKNGFPPLPENQPLEGTFPCDFAWGVVDNYIQVDTTLSQFTDLNVYLW
  binding in the sKL detection assay: cannot mediate FGF23-FGFR1c binding; also recorded: did not show any bioactivity; also recorded: no binding

B2: Com.sKL: commercial preparation, mouse sKL from R&D Systems (1819KL050), aa 35-982 (protein)
chain: AEPGQGAQTWARFARAPAPEAAGLLHDTFPDGFLWAVGSAAYQTEGGWRQHGKGASIWDTFTHHSGAAPSDSPIVVAPSGAPSPPLSSTGDVASDSYNNVYRDTEGLRELGVTHYRFSISWARVLPNGTAGTPNREGLRYYRRLLERLRELGVQPVVTLYHWDLPQRLQDTYGGWANRALADHFRDYAELCFRHFGGQVKYWITIDNPYVVAWHGYATGRLAPGVRGSSRLGYLVAHNLLLAHAKVWHLYNTSFRPTQGGRVSIALSSHWINPRRMTDYNIRECQKSLDFVLGWFAKPIFIDGDYPESMKNNLSSLLPDFTESEKRLIRGTADFFALSFGPTLSFQLLDPNMKFRQLESPNLRQLLSWIDLEYNHPPIFIVENGWFVSGTTKRDDAKYMYYLKKFIMETLKAIRLDGVDVIGYTAWSLMDGFEWHRGYSIRRGLFYVDFLSQDKELLPKSSALFYQKLIEDNGFPPLPENQPLEGTFPCDFAWGVVDNYVQVDTTLSQFTDPNVYLWDVHHSKRLIKVDGVVAKKRKPYCVDFSAIRPQITLLREMRVTHFRFSLDWALILPLGNQTQVNHTVLHFYRCMISELVHANITPVVALWQPAAPHQGLPHALAKHGAWENPHTALAFADYANLCFKELGHWVNLWITMNEPNTRNMTYRAGHHLLRAHALAWHLYDDKFRAAQKGKISIALQADWIEPACPFSQNDKEVAERVLEFDIGWLAEPIFGSGDYPRVMRDWLNQKNNFLLPYFTEDEKKLVRGSFDFLAVSHYTTILVDWEKEDPMKYNDYLEVQEMTDITWLNSPSQVAVVPWGLRKVLNWLRFKYGDLPMYVTANGIDDDPHAEQDSLRIYYIKNYVNEALKAYVLDDINLCGYFAYSLSDRSAPKSGFYRYAANQFEPKPSMKHYRKIIDSNGFLGSGTLGRFCPEEYTVCTECGFFQTRK
  binding in the sKL detection assay: significantly reduced binding
